B1: DBS: Drosophila P-TEFb small subunit, HIS-tagged recombinant (protein)
chain: MAHMSHMLQQPSGSTPSNVGSSSSRTMSLMEKQKYIEDYDFPYCDESNKYEKVAKIGQGTFGEVFKAREKKGNKKFVAMKKVLMDNEKEGFPITALREIRILQLLKHENVVNLIEICRTKATATNGYRSTFYLVFDFCEHDLAGLLSNMNVKFSLGEIKKVMQQLLNGLYYIHSNKILHRDMKAANVLITKHGILKLADFGLARAFSIPKNESKNRYTNRVVTLWYRPPELLLGDRNYGPPVDMWGAGCIMAEMWTRSPIMQGNTEQQQLTFISQLCGSFTPDVWPGVEELELYKSIELPKNQKRRVKERLRPYVKDQTGCDLLDKLLTLDPKKRIDADTALNHDFFWTDPMPSDLSKMLSQHLQSMFEYLAQPRRSNQMRNYHQQLTTMNQKPQDNSMIDRVW
modifications: left off: small tags and cut ends
notes: Drosophila P-TEFb small subunit, HIS-tagged recombinant
B2: Tat: 86 residue HIV-1 Tat followed by a streptavidin binding tag at its carboxyl terminus (protein)
chain: MEPVDPRLEPWKHPGSQPKTACTNCYCKKCCFHCQVCFITKALGISYGRKKRRQRRRAHQNSQTHQASLSKQPTSQPRGDPTGPKE
modifications: left off: large carriers

Key:
[1] = test system: transcription in Drosophila extract depleted of P-TEFb; test: Transcription activity of recombinant protein added into Drosophila extract depleted of P-TEFb (Table 1); format: biochemical
RNA polymerase II = test: Kinase assay of recombinant P-TEFb subunits with RNA polymerase II as substrate (Table 1); format: biochemical, Drosophila; settings: RNA polymerase II as substrate
Description: 0.4 μl of purified RNA polymerase II and various protein samples were mixed in 18 μl of 55 mM HMK. The reaction was then initiated by the addition of 2 μl of a solution containing 2 μCi of [γ-^32P]ATP (ICN) and unlabeled ATP at 10 μM, or only unlabeled ATP at concentrations from 1 to 100 μM or other NTPs or dNTPs at concentrations of 1 to 100 μM. Reactions were incubated for the indicated times at 23° C. and then terminated with SDS loading buffer. Samples were analyzed on a 6–15% SDS polyacrylamide gel which was silver stained, dried and subjected to autoradiography if the assay contained label.
Using the CTD Kinase assay, as previously described in Example 2, Section A.7, both HBL1-1 (SEQ ID NO:45), HBL2(SEQ ID NO:47) and HBL3 (SEQ ID NO:50) were substituted for the large subunit in the Drosophila transcription system. Alone “PITARLE” has little kinase activity and no detectable activity in transcription.

[2] = test system: transcription from HIV-1 LTR; test: In vitro Tat transactivation in HNE with TAR and DTAR templates (FIG. 8); format: biochemical, human
Description: The transcription template (Nco I-digested pLTR-4/CAT vector containing the HIV-1 LTR from −153 to +80) was used in a pulse-chase transcription experiment. Reactions (12 μl total; 20 mM HEPES, pH 7.6, 7 mM MgCl2, 20 μg/ml DNA template, 3 μl HNE, 64 mM KCl, with 50 μM DRB or 0.3 μl Drosophila P-TEFb (Marshall et al., 1996) as indicated) were pre-incubated for 20 minutes at 30° C., pulsed for 2 minutes by adding ATP, GTP, UTP to 600 μM each and 5 μCi [α-^32P]CTP (˜0.1 mM), and chased for 5 minutes by adding CTP to 1.2 mM. Reactions were stopped, phenol extracted and analyzed on a 6% polyacrylamide gel as described (Marshall and Price, 1995). pLTR-TAR-Luc and pLTR-DTAR-Luc plasmids were digested with Eco RI to generate TAR and DTAR template that were used in the studies. The TAR template contains HIV-1 LTR from −475 to +76, while the DTAR template contains HIV-1 LTR from −475 to +19. Transcription with TAR and DTAR templates generates runoffs of 694 and 646 nucleotides, respectively. The transcription reaction mix contained 20 mM HEPES (pH7.6), 7 mM MgCl2, 60 mM KCl, 0.5 μl HNE (or depHNE as indicated), 20 μg/ml TAR template (or DTAR template as indicated), indicated amount of HIV-1 Tat (86 residue HIV-1 Tat followed by a streptavidin binding tag at its carboxyl terminus) and DRB. The reaction mix was pre-incubated for 15 minutes at 30° C. and the transcription was started by adding nucleotides to final concentrations of 50 μM ATP, 50 μM GTP, 50 μM UTP, 10 μM CTP, and 5 μCi [α-^32P]CTP (˜0.1 mM), and continuously labeled for 20 minutes, or by adding nucleotides to final concentrations of 50 μM ATP, 50 μM GTP, 50 μM UTP, and 5 μCi [α-^32P]CTP (˜0.1 mM), and pulsed for 2 minutes. The reactions were stopped and reaction mix were phenol-extracted. The transcripts were then analyzed on a 6% polyacrylamide gel as described (Marshall and Price, 1995).

Molecule | Transcription activity [1] | Kinase activity (RNA polymerase II) | stimulation of generation of runoff ([2]; HNE not depleted, TAR template, continuous labeling, 10 ng/μl Tat) | increase of runoff in presence of 50 μM DRB, DTAR template or absence of human P-TEFb ([2]; continuous labeling) | increase of transcription initiation (short pulsed transcripts) ([2]; pulse-only protocol, 10 ng/μl Tat)
B1 | none | very little | – | – | –
B2 | – | – | about 12 fold | about two | about two
